Measured values: PMC10194977

Assays:
[1] = biological target: Recombinant human PERK (EIF2AK3, active catalytic subunit of PERK protein) (human)
[2] = biological target: Recombinant human PERK (EIF2AK3, active catalytic subunit of PERK protein) (human); remark: listed apart in the source
[3] = biological target: Recombinant human PERK (EIF2AK3, active catalytic subunit of PERK protein) (human); remark: listed apart in the source

EC50 of activation of PERK kinase activity (ATP consumption, ADP-Glo luminescence; 87 nM PERK, 0.26 μM SMAD3 as substrate, 50 μM ATP; RT, 2 h; three-fold serial dilution of calcineurin-B) [1]: 2.72 µM
relative PERK kinase activity (% of basal activity; ADP-Glo, SMAD3 substrate) with 0.87 μM calcineurin-B at reaction times of 15, 30, 60 and 120 min, RT; highest value at 120 min [2]: 128%
% of PERK activity (relative to control; ADP-Glo, SMAD3 substrate) with 0.87 μM calcineurin-B, 1 h at 37 °C (no significant activation) [3]: 99.5%
% of PERK activity (relative to control; ADP-Glo, SMAD3 substrate) with 0.87 μM calcineurin-B, 1 h at RT [3]: 106%
Substance: full-length recombinant human calcineurin-B (from UniProt P63098 1-170) (natural protein)
